{
  "source": "patent US20190017997",
  "proteins": {"B1": {"name": "PAK4 (p21-activated kinase 4) (protein)", "chain": "MFGKRKKRVEISAPSNFEHRVHTGFDQHEQKFTGLPRQWQSLIEESARRPKPLVDPACITSIQPGAPKTIVRGSKGAKDGALTLLLDEFENMSVTRSNSLRRDSPPPPARARQENGMPEEPATTARGGPGKAGSRGRFAGHSEAGGGSGDRRRAGPEKRPKSSREGSGGPQESSRDKRPLSGPDVGTPQPAGLASGAKLAAGRPFNTYPRADTDHPSRGAQGEPHDVAPNGPSAGGLAIPQSSSSSSRPPTRARGAPSPGVLGPHASEPQLAPPACTPAAPAVPGPPGPRSPQREPQRVSHEQFRAALQLVVDPGDPRSYLDNFIKIGEGSTGIVCIATVRSSGKLVAVKKMDLRKQQRRELLFNEVVIMRDYQHENVVEMYNSYLVGDELWVVMEFLEGGALTDIVTHTRMNEEQIAAVCLAVLQALSVLHAQGVIHRDIKSDSILLTHDGRVKLSDFGFCAQVSKEVPRRKSLVGTPYWMAPELISRLPYGPEVDIWSLGIMVIEMVDGEPPYFNEPPLKAMKMIRDNLPPRLKNLHKVSPSLKGFLDRLLVRDPAQRATAAELLKHPFLAKAGPPASIVPLMRQNRTR"}, "B2": {"name": "caPAK4 (PAK4 S445N/S474E, constitutively active PAK4) (protein)", "chain": "B1 chain with S445N, S474E"}},
  "key": {"CRTC1 S151A": {"biological_target": "T1, CRTC1 S151A", "T1 chain": "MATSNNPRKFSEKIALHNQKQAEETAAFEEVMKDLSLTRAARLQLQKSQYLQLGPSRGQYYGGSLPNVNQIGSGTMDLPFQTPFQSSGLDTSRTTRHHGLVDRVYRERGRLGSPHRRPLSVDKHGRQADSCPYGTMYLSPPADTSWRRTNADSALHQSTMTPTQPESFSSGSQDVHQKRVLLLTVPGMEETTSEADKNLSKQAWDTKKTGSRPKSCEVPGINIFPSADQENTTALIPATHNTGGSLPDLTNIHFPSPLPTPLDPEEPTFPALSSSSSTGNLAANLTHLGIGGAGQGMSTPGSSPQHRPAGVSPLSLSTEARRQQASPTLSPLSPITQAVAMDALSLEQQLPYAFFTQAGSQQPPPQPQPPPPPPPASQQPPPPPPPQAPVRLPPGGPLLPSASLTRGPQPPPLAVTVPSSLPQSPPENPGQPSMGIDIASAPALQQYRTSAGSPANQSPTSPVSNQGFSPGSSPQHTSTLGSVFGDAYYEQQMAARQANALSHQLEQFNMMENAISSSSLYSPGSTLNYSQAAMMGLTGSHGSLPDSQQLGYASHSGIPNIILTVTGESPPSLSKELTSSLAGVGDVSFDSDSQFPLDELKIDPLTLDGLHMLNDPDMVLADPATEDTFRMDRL"}, "[1]": {"biological_target": "CREB (cyclic adenosine 3',5'-monophosphate response element-binding protein), P16220", "sequence (P16220 whole entry)": "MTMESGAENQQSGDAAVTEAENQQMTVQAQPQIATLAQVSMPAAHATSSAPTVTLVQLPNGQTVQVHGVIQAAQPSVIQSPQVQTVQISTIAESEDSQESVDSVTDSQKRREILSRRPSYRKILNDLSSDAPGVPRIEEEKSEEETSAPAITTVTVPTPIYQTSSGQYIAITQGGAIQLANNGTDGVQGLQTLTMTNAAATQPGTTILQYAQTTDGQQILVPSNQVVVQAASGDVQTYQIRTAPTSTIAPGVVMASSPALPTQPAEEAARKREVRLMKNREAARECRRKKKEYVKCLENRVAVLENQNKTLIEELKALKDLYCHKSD"}, "CRTC1 S151A/T449A": {"biological_target": "T2, CRTC1 S151A/T449A", "T2 chain": "T1 chain with T449A"}, "[2]": {"biological_target": "T3, CRTC1 (CREB-regulated transcription coactivator 1)", "T3 chain": "T1 chain with A151S"}, "CRTC1 S151A/S215A": {"biological_target": "T4, CRTC1 S151A/S215A", "T4 chain": "T1 chain with S215A"}},
  "note": "Changes are numbered by the printed parent chain. In names and notes the source's numbering stands.",
  "data": [
    {"protein": "B1", "values": [
      {"measurement": "phosphorylation by PAK4 (kinase analysis of CRTC1 variants)", "setting": "CRTC1 S151A", "value": "CRTC1^S151A and CRTC1^S151A/T449A were slightly phosphorylated"},
      {"measurement": "phosphorylation of CREB", "setting": "[1]", "value": "PAK4 does not induce phosphorylation of CREB"},
      {"measurement": "phosphorylation by PAK4 (kinase analysis of CRTC1 variants)", "setting": "CRTC1 S151A/T449A", "value": "CRTC1^S151A and CRTC1^S151A/T449A were slightly phosphorylated"},
      {"measurement": "phosphorylation of CRTC1 (in vitro kinase assay)", "setting": "[2]", "value": "PAK4 phosphorylates CRTC1"},
      {"measurement": "phosphorylation by PAK4 (kinase analysis of CRTC1 variants)", "setting": "CRTC1 S151A/S215A", "value": "CRTC1^S151A/S215A, was not phosphorylated"}
    ]},
    {"protein": "B2", "values": [
      {"measurement": "substrate of the kinase (kinase analysis)", "setting": "[2]", "value": "CRTC1 is a substrate of caPAK4"}
    ]}
  ]
}
